Reference: US20260265357A1 (NEPHRIS, published 2026)

T1: mouse NBL1 (mouse, UniProt Q61477 17-178, limits assumed)
T1 sequence (looked up): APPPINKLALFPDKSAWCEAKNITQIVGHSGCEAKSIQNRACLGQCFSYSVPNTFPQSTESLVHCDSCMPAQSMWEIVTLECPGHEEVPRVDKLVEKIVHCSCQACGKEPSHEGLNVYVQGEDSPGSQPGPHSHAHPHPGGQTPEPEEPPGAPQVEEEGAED

T2: human NBL1 (neuroblastoma suppressor of tumorigenicity 1) (human, UniProt P41271 17-181, limits assumed)
T2 construct: Recombinant human NBL1; also called DAN; DAND1
T2 sequence (looked up): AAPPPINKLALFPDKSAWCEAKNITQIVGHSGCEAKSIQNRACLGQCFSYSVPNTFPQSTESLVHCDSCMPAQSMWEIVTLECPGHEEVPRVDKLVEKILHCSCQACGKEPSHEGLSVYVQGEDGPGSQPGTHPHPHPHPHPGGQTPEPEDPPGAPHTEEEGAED


Legend:
mouse NBL1 = biological target: T1, mouse NBL1; test: ELISA, IgG1 format
Description: (§1) Naïve human phage display libraries were panned to discover Fabs capable of binding human NBL1 (UniProt ID P41271), and further screened for potential inter species cross reactivity to mouse NBL1 (UniProt ID Q61477) and/or cynomolgus (“cyno”) NBL1 (UniProt ID A0A2K5WIY3). […] Antigen binding of the IgG1 formatted antibodies was tested by ELISA and EC50 values were calculated.

[1] = biological target: T2, human NBL1 (neuroblastoma suppressor of …); test: ELISA, IgG1 format
Description: as §1

binding result (mouse NBL1)	binding result [1]	Binder
binds	binds	Antibody YU1018-E01 (antibody, V domains shown) VH: QVQLVQSGAEVKKPGASVKVSCKASGYTFTSYGISWVRQAPGRGLEWMGWISAYNGNTNYAQKLQGRVTMTTDTSTSTAYMELRSLRSDDTAVYYCARGPRDGYNDYWGQGTLVTVSS VL: not shown
binds	binds	Antibody YU1018-D08 (antibody, V domains shown) VH: QVQLVQSGAEVKKPGSSVKVSCKASGGTFSSYAISWVRQAPGQGLEWMGGIIPIFGTANYAQKFQGRVTITADKSTSTAYMELSSLRSEDTAVYYCARDRYYDSSGYYLMDPWGQGTLVTVSS VL: not shown
binds	binds	Antibody YU1018-D12 (antibody, V domains shown) VH: EVQLVQSGAEVKKPGASVKVSCKASGYTFTSYGISWVRQAPGQGLEWMGWISAYNGNTNYAQKLQGRVTMTTDTSTSTAYMELRSLRSDDTAVYYCARDVGYSYGIFDYWGQGTLVTVSS VL: not shown
binds	binds	Antibody YU1018-E04 (antibody, V domains shown) VH: QVQLVQSGAEVKKPGESLKISCKGSGYSFTSYWIGWVRQMPGKGLEWMGIIYPGDSDTRYSPSFQGQVTISADKSISTAYLQWSSLKASDTAMYYCARAIVGATSGYWFDPWGQGTLVTVSS VL: not shown
binds	binds	Antibody YU1019-A12 (antibody, V domains shown) VH: EVQLLESGPGLVKPSQTLSLTCTVSGGSISSGDYYWSWIRQPPGKGLEWIGYIYYSGSTYYNPSLKSRVTISVDTSKNQFSLKLSSVTAADTAVYYCARGRRLLLFHWGQGTTVTVSS VL: QSVLTQPPSVSAAPGQKVTISCSGSGSSIGNNYVSWYQQVPGTPPKLLIYDNNKRASGIPDRFSGSKSGTSATLGITGLQTGDEADYYCGTWDNSLSAVVFGGGTKLTVL
binds	binds	Antibody YU1018-D06 (antibody, V domains shown) VH: QVQLVESGPGLVKPSQTLSLTCTVSGGSISSGGYYWSWIRQHPGKGLEWIGYIYYSGSTYYNPSLKSRVTISVDTSKNQFSLKLSSVTAADTAVYYCARSGAAGIPWFDPWGQGTLVTVSS VL: QSVLTQPPSVSAAPGQKVTISCSGSSSNIGNNYVSWYQQLPGTAPKLLIYENNERPSGIPDRLSGSKSGTSATLAITGLQTGDEADYYCGTWDSSLSAVVFGGGTKLTVL
binds	binds	Antibody YU1019-B06 (antibody, V domains shown) VH: EVQLLESGGGVVQPGRSLRLSCAASGFTFSSYAMHWVRQAPGKGLEWVAVISYDGSNKYYADSVKGRFTISRDNSKNTLYLQMNSLRAEDTAVYYCASPVLRYFDWLPNYWGQGTLVTVSS VL: not shown
binds	binds	Antibody YU1018-E07 (antibody, V domains shown) VH: EVQLLESGGGVVQPGRSLRLSCAASGFTFSSYAMHWVRQAPGKGLEWVAVISYDGSNKYYADSVKGRFTISRDNSKNTLYLQMNSLRAEDTAVYYCASPVLRYFDWLPNYWGQGTTVTVSS VL: not shown
binds	binds	Antibody YU1018-G01 (antibody, V domains shown) VH: QVQLVQSGAEVKKPGASVKVSCKASGYTFTSYAMHWVRQAPGQRLEWMGWINAGNGNTKYSQKFQGRVTITRDTSASTAYMELSSLRSEDTAVYYCARGRELLTFDYWGQGTLVTVSS VL: not shown
